{
  "source": "paper PMC3398536",
  "test_in_all_cases": "native gel or EMSA",
  "key": {"[1]": {"biological_target": "AcK-pro-PanD variant with acetyl-lysine at position 9 (S. enterica)"}, "[2]": {"biological_target": "AcK-pro-PanD variant with acetyl-lysine at position 14 (S. enterica)"}, "[3]": {"biological_target": "AcK-pro-PanD variant with acetyl-lysine at position 53 (S. enterica)"}, "[4]": {"biological_target": "AcK-pro-PanD variant with acetyl-lysine at position 104 (S. enterica)"}, "[5]": {"biological_target": "AcK-pro-PanD variant with acetyl-lysine at position 115 (S. enterica)"}, "[6]": {"biological_target": "AcK-pro-PanD variant with acetyl-lysine at position 119 (S. enterica)"}, "[7]": {"biological_target": "pro-PanD (wild type), made from a plasmid in S. enterica ΔpanM (S. enterica)"}},
  "data": [
    {"substance": "AcK-pro-PanD variant with acetyl-lysine at position 9 (natural protein)", "values": [
      {"measurement": "stoichiometry N", "setting": "[1]", "result": 4}
    ]},
    {"substance": "AcK-pro-PanD variant with acetyl-lysine at position 14 (natural protein)", "values": [
      {"measurement": "stoichiometry N", "setting": "[2]", "result": 4}
    ]},
    {"substance": "AcK-pro-PanD variant with acetyl-lysine at position 53 (natural protein)", "values": [
      {"measurement": "stoichiometry N", "setting": "[3]", "result": 4}
    ]},
    {"substance": "AcK-pro-PanD variant with acetyl-lysine at position 104 (natural protein)", "values": [
      {"measurement": "stoichiometry N", "setting": "[4]", "result": 4}
    ]},
    {"substance": "AcK-pro-PanD variant with acetyl-lysine at position 115 (natural protein)", "values": [
      {"measurement": "stoichiometry N", "setting": "[5]", "result": 4}
    ]},
    {"substance": "AcK-pro-PanD variant with acetyl-lysine at position 119 (natural protein)", "values": [
      {"measurement": "stoichiometry N", "setting": "[6]", "result": 4}
    ]},
    {"substance": "pro-PanD (wild type), made from a plasmid in S. enterica ΔpanM (natural protein)", "values": [
      {"measurement": "stoichiometry N", "setting": "[7]", "result": 4}
    ]}
  ]
}
